Results published in the Immune Epitope Database (IEDB).

Key:
Details in all cases: source organism: Human immunodeficiency virus type 1 (JRCSF ISOLATE)
[1] = target: HLA-A*03:01; assay: IEDB peptide-MHC binding, purified MHC/competitive/radioactivity; ≥ and ≤ were set here for values at or beyond the usual limits of such assays
[2] = target: HLA-A*11:01; assay: as above
[3] = target: HLA-A*03:01; assay: IEDB peptide-MHC binding, purified MHC/competitive/radioactivity; filed as Kd, often an IC50 or EC50 that approximates it; ≥ and ≤ were set here for values at or beyond the usual limits of such assays
[4] = target: HLA-A*11:01; assay: as above

Row | Sequence | IC50 [1] | IC50 [2] | Kd [3] | Kd [4]
1 | AIFQSSMTK | 10 nM | – | – | –
2 | AVFIHNFKR | 64.7 nM | 3.3 nM | – | –
3 | KIQNFRVYYR | 344 nM | – | – | –
4 | MAVFIHNFK | 647 nM | 20 nM | – | –
5 | MTKILEPFR | – | – | 13.8 µM | –
6 | MVHQAISPR | 61.1 nM | 89.6 nM | – | –
7 | NTPVFAIKK | 333 nM | 100 nM | – | –
8 | QMAVFIHNFK | 9.2 nM | – | – | –
9 | QMVHQAISPR | 423 nM | – | – | 6 µM
10 | TIKIGGQLK | 40.7 nM | 182 nM | – | –
11 | TLFCASDAK | 118 nM | – | – | –
12 | TTLFCASDAK | 120 nM | 27.3 nM | – | –
13 | YLAWVPAHK | 143 nM | – | – | –
